Experiments:
[1] = substrate: CC(=O)N[C@@H](CS)C(=O)N[C@H]1[C@@H](O[C@@H]2[C@H](O)[C@H](O)[C@@H](O)[C@H](O)[C@H]2O)O[C@H](CO)[C@@H](O)[C@@H]1O; conditions: Mycobacterium tuberculosis
Description: Binding affinity to Mycobacterium tuberculosis MST assessed as Km in presence of zinc

[2] = substrate: CC(=O)N[C@@H](CS)C(=O)N[C@H]1[C@@H](O[C@@H]2[C@H](O)[C@H](O)[C@@H](O)[C@H](O)[C@H]2O)O[C@H](CO)[C@@H](O)[C@@H]1O; conditions: Mycobacterium tuberculosis; remark: listed apart in the source
Description: Binding affinity to Mycobacterium tuberculosis MST assessed as Km by differential scanning fluorimetry method

B1: Conserved protein (Mycobacterium tuberculosis), O53728 (protein)
chain: MASTDAAAQELLRDAFTRLIEHVDELTDGLTDQLACYRPTPSANSIAWLLWHSARVQDIQVAHVAGVEEVWTRDGWVDRFGLDLPRHDTGYGHRPEDVAKVRAPADLLSGYYHAVHKLTLEYIAGMTADELSRVVDTSWNPPVTVSARLVSIVDDCAQHLGQAAYLRGIAR
With B1 the Km [1] was 9.8 µM and the Km [2] was 18.4 µM.

From ChEMBL document CHEMBL5252635, “The Mycobacterium tuberculosis mycothiol S-transferase is divalent metal-dependent for mycothiol binding and transfer” (2023)
